# According to patent US20260001928A1 (CORTERIA PHARMACEUTICALS, priority 2022, published 2026):
# *1 amine or outer side, *2 acyl side, *3 side chain or, on linkers, in order; H or OH if unused. Where a SMILES comes first, the peptide text is derived from it. Where no end group is shown, it is not given here. Side-chain parts run from the residue outwards. [ ]: non-standard residue; d: D form. The star is where a group is joined. C20 diacid = O=C(O)CCCCCCCCCCCCCCCCCCC(=O)*; C18 diacid = O=C(O)CCCCCCCCCCCCCCCCC(=O)*; C16 diacid = O=C(O)CCCCCCCCCCCCCCC(=O)*; γGlu = O=C(O)[C@H](CCC(=O)[*:2])N[*:1]; C14 diacid = O=C(O)CCCCCCCCCCCCC(=O)*; NMeI = CC[C@H](C)[C@H](NC)C(=O)O; Pentanoyl = CCCCC(=O)*; Aib = CC(C)(N)C(=O)O
# System: human LAD2 cells
# Test: not given
# Assay type: cell-based
# How it was run: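 Mast cell degranulation: cells exposed to peptides for 30 min at final concentrations from 50, 100 or 300 down to 0.1 or 0.001 μM, with 0.5% DMSO where used, in biological duplicates. β-hexosaminidase release was read with a fluorogenic 4-methylumbelliferyl substrate as supernatant/(supernatant + Triton-lysed pellet) × 100. EC50 came from a 4-parameter sigmoidal fit.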
row,EC50 [µM],Molecule
1,> 300,CC[C@H](C)[C@H](NC(C)=O)C(=O)N[C@H](C(=O)N[C@@H](CC(C)C)C(=O)N[C@@H](CO)C(=O)N[C@@H](CC(C)C)C(=O)N[C@@H](CC(=O)O)C(=O)N[C@@H](C(=O)N1CCC[C@H]1C(=O)N[C@H](C(=O)N[C@@H](CCCCN)C(=O)N[C@@H](CC(C)C)C(=O)N[C@@H](CCCCNC(=O)CC[C@H](NC(=O)CC[C@H](NC(=O)CCCCCCCCCCCCCCCCCCC(=O)O)C(=O)O)C(=O)O)C(=O)N[C@@H](CCCCN)C(=O)N[C@H](C(=O)N[C@@H](CC(C)C)C(=O)N[C@@H](CC(C)C)C(=O)N[C@@H](CCC(=O)O)C(=O)N[C@@H](CCC(N)=O)C(=O)N[C@@H](CCC(=O)O)C(=O)N[C@@H](CCCCN)C(=O)N[C@@H](CCC(N)=O)C(=O)N[C@@H](CCCCN)C(=O)N[C@@H](CCCCN)C(=O)N[C@@H](CCC(N)=O)C(=O)N[C@@H](CCCNC(=N)N)C(=O)N[C@@H](CCC(=O)O)C(=O)N[C@@H](CCC(N)=O)C(=O)N[C@@H](C)C(=O)N[C@@H](CCC(=O)O)C(=O)N[C@H](C(=O)N[C@@H](CC(N)=O)C(=O)NC(C)(C)C(=O)N[C@@H](CCC(N)=O)C(=O)N[C@H](C(=O)N[C@@H](CC(C)C)C(=O)N[C@@H](C)C(=O)N[C@@H](CCC(N)=O)C(=O)N[C@H](C(N)=O)C(C)C)[C@@H](C)CC)[C@@H](C)O)[C@@H](C)CC)[C@@H](C)CC)C(C)C)C(C)C [Cmpd 243] (Ac-IVLSLD[dV]PIKLK([γGlu-γGlu-C20 diacid])KILLEQEKQKKQREQAETN[Aib]QILAQV-NH2)
2,16.4,"NC(N)=NCCC[C@@H](N)C(=O)N[C@@H](CCCN=C(N)N)C(=O)N1CCC[C@H]1C(=O)N1C[C@H](O)C[C@H]1C(=O)NCC(=O)N[C@@H](Cc1cccs1)C(=O)N[C@@H](CO)C(=O)N1Cc2ccccc2C[C@@H]1C(=O)N1[C@H](C(=O)N[C@@H](CCCN=C(N)N)C(=O)O)C[C@@H]2CCCC[C@@H]21 [Icatibant, reference compound]"

# Biological target: Rat CRF2 a (corticotropin-releasing factor receptor 2), on the A7R5 rat aortic smooth muscle cell line (rat, UniProt P47866 20-411)
# Sequence (P47866 20-411): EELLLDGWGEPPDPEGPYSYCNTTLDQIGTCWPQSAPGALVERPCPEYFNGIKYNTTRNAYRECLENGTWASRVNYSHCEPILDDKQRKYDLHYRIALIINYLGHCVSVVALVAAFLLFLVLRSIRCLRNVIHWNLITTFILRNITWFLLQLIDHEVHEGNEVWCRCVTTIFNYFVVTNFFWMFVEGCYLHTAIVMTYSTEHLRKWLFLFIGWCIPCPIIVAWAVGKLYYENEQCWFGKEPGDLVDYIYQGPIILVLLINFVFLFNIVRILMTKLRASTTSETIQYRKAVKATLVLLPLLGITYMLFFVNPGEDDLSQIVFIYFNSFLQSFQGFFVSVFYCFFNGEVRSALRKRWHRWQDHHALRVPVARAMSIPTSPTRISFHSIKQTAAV
# Test: cell-based or functional assay
row,"EC50 [nM] 0% HSA (cAMP, A7R5 rat aortic smooth muscle cells) [nM]",Molecule
1,1.01,Ac-IVLSLD[dV]PIKLK([γGlu-C14 diacid])KILLEQEKQKKQREQAETNEQILAQV-NH2 [comparative peptide 11 (SEQ ID NO: 85)]
2,0.59,Ac-IVLSLD[dV]PIKLK([γGlu-C16 diacid])KILLEQEKQKKQREQAETN[Aib]QILAQV-NH2 (SMILES CC[C@H](C)[C@H](NC(C)=O)C(=O)N[C@H](C(=O)N[C@@H](CC(C)C)C(=O)N[C@@H](CO)C(=O)N[C@@H](CC(C)C)C(=O)N[C@@H](CC(=O)O)C(=O)N[C@@H](C(=O)N1CCC[C@H]1C(=O)N[C@H](C(=O)N[C@@H](CCCCN)C(=O)N[C@@H](CC(C)C)C(=O)N[C@@H](CCCCNC(=O)CC[C@H](NC(=O)CCCCCCCCCCCCCCC(=O)O)C(=O)O)C(=O)N[C@@H](CCCCN)C(=O)N[C@H](C(=O)N[C@@H](CC(C)C)C(=O)N[C@@H](CC(C)C)C(=O)N[C@@H](CCC(=O)O)C(=O)N[C@@H](CCC(N)=O)C(=O)N[C@@H](CCC(=O)O)C(=O)N[C@@H](CCCCN)C(=O)N[C@@H](CCC(N)=O)C(=O)N[C@@H](CCCCN)C(=O)N[C@@H](CCCCN)C(=O)N[C@@H](CCC(N)=O)C(=O)N[C@@H](CCCNC(=N)N)C(=O)N[C@@H](CCC(=O)O)C(=O)N[C@@H](CCC(N)=O)C(=O)N[C@@H](C)C(=O)N[C@@H](CCC(=O)O)C(=O)N[C@H](C(=O)N[C@@H](CC(N)=O)C(=O)NC(C)(C)C(=O)N[C@@H](CCC(N)=O)C(=O)N[C@H](C(=O)N[C@@H](CC(C)C)C(=O)N[C@@H](C)C(=O)N[C@@H](CCC(N)=O)C(=O)N[C@H](C(N)=O)C(C)C)[C@@H](C)CC)[C@@H](C)O)[C@@H](C)CC)[C@@H](C)CC)C(C)C)C(C)C) [peptide of SEQ ID NO: 40]
3,0.05,[NMeI]VLSLD[dV]PIKLK([γGlu-C18 diacid])KILLEQEKQK[Aib]QREQAETN[Aib]QILAQV-NH2 (N-terminus assumed; SMILES CC[C@H](C)[C@H](NC)C(=O)N[C@H](C(=O)N[C@@H](CC(C)C)C(=O)N[C@@H](CO)C(=O)N[C@@H](CC(C)C)C(=O)N[C@@H](CC(=O)O)C(=O)N[C@@H](C(=O)N1CCC[C@H]1C(=O)N[C@H](C(=O)N[C@@H](CCCCN)C(=O)N[C@@H](CC(C)C)C(=O)N[C@@H](CCCCNC(=O)CC[C@H](NC(=O)CCCCCCCCCCCCCCCCC(=O)O)C(=O)O)C(=O)N[C@@H](CCCCN)C(=O)N[C@H](C(=O)N[C@@H](CC(C)C)C(=O)N[C@@H](CC(C)C)C(=O)N[C@@H](CCC(=O)O)C(=O)N[C@@H](CCC(N)=O)C(=O)N[C@@H](CCC(=O)O)C(=O)N[C@@H](CCCCN)C(=O)N[C@@H](CCC(N)=O)C(=O)N[C@@H](CCCCN)C(=O)NC(C)(C)C(=O)N[C@@H](CCC(N)=O)C(=O)N[C@@H](CCCNC(=N)N)C(=O)N[C@@H](CCC(=O)O)C(=O)N[C@@H](CCC(N)=O)C(=O)N[C@@H](C)C(=O)N[C@@H](CCC(=O)O)C(=O)N[C@H](C(=O)N[C@@H](CC(N)=O)C(=O)NC(C)(C)C(=O)N[C@@H](CCC(N)=O)C(=O)N[C@H](C(=O)N[C@@H](CC(C)C)C(=O)N[C@@H](C)C(=O)N[C@@H](CCC(N)=O)C(=O)N[C@H](C(N)=O)C(C)C)[C@@H](C)CC)[C@@H](C)O)[C@@H](C)CC)[C@@H](C)CC)C(C)C)C(C)C) [peptide of SEQ ID NO: 145]
4,0.68,Pentanoyl-VLSLD[dV]PIKLK([γGlu-C14 diacid])KILLEQEKQKKQREQAETN[Aib]QILAQV-NH2 [peptide of SEQ ID NO: 86]
5,0.06,[NMeI]VLSLD[dV]PIKLK([γGlu-C18 diacid])KILLEQEKQKAQREQAETN[Aib]QILAQV-NH2 (N-terminus assumed; SMILES CC[C@H](C)[C@H](NC)C(=O)N[C@H](C(=O)N[C@@H](CC(C)C)C(=O)N[C@@H](CO)C(=O)N[C@@H](CC(C)C)C(=O)N[C@@H](CC(=O)O)C(=O)N[C@@H](C(=O)N1CCC[C@H]1C(=O)N[C@H](C(=O)N[C@@H](CCCCN)C(=O)N[C@@H](CC(C)C)C(=O)N[C@@H](CCCCNC(=O)CC[C@H](NC(=O)CCCCCCCCCCCCCCCCC(=O)O)C(=O)O)C(=O)N[C@@H](CCCCN)C(=O)N[C@H](C(=O)N[C@@H](CC(C)C)C(=O)N[C@@H](CC(C)C)C(=O)N[C@@H](CCC(=O)O)C(=O)N[C@@H](CCC(N)=O)C(=O)N[C@@H](CCC(=O)O)C(=O)N[C@@H](CCCCN)C(=O)N[C@@H](CCC(N)=O)C(=O)N[C@@H](CCCCN)C(=O)N[C@@H](C)C(=O)N[C@@H](CCC(N)=O)C(=O)N[C@@H](CCCNC(=N)N)C(=O)N[C@@H](CCC(=O)O)C(=O)N[C@@H](CCC(N)=O)C(=O)N[C@@H](C)C(=O)N[C@@H](CCC(=O)O)C(=O)N[C@H](C(=O)N[C@@H](CC(N)=O)C(=O)NC(C)(C)C(=O)N[C@@H](CCC(N)=O)C(=O)N[C@H](C(=O)N[C@@H](CC(C)C)C(=O)N[C@@H](C)C(=O)N[C@@H](CCC(N)=O)C(=O)N[C@H](C(N)=O)C(C)C)[C@@H](C)CC)[C@@H](C)O)[C@@H](C)CC)[C@@H](C)CC)C(C)C)C(C)C) [peptide of SEQ ID NO: 144]
6,0.32,[NMeI]VLSLD[dV]PIKLK([γGlu-C14 diacid])KILLEQEKQKKQREQAETN[Aib]QILAQV-NH2 [peptide of SEQ ID NO: 87]
